Assay results as given in patent publication US6077682.

Target: EnvZ(C)(223-289) (Escherichia coli)

With EnvZ(C)(290-450) (enzyme) the trans-autophosphorylation of sub-domain A with [gamma-32P]ATP, autoradiography was 5%.
